Laboratory results reported in article PMC9682730.

Assays:
[1] = target: spastin (human (endogenous in HEK293)) (UniProt Q9UBP0); test: co-IP; reverse IP with spastin antibody from transfected cells, western blot with FLAG antibody; three independent experiments
FLAG-CHMP2B^Intron5 = FLAG-CHMP2B^Intron5 (UniProt Q9UQN3); test: co-IP; anti-FLAG M2 affinity gel IP from lysates of transfected HEK293 cells, overnight at 4 °C, washed with 50 mM Tris-HCl pH 7.4, 150 mM NaCl, FLAG elution; western blot with spastin antibody; four independent experiments, normalised to the abundance of CHMP2B^WT versus CHMP2B^Intron5

Chain of FLAG-CHMP2B^Intron5 (Q9UQN3 whole entry): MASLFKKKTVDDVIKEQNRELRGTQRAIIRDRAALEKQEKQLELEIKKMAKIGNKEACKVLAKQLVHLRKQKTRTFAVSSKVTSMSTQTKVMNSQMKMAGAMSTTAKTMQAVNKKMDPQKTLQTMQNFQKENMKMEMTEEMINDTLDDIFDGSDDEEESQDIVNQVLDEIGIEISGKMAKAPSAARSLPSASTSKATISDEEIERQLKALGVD

Row | fold of CHMP2B pulled down by spastin antibody against CHMP2B^WT [1] [times] | fold of spastin pulled down against CHMP2B^WT (FLAG-CHMP2B^Intron5) [times] | Substance
1 | 3.3 | – | FLAG-CHMP2B^Intron5 (from UniProt Q9UQN3 1-213) (natural protein)
2 | – | 11 | spastin (from UniProt Q9UBP0 87-616) (natural protein)
